In patent publication US20050064593A1 (WALTER AND ELIZA HALL INSTITUTE OF MEDICAL RESEARCH, published 2005):

Legend:
[1] = biological target: T1, mouse Mcl-1 lacking its hydrophobic C-terminus (yeast 2-hybrid bait in pGBT-9) (mouse, UniProt P97287 1-307); test: yeast 2-hybrid screen
T1 construct: not shown: GAL4 domain of pGBT-9

[2] = biological target: mouse dynein light chain 2 (DLC2) (mouse, UniProt Q9D0M5 1-89); test: yeast 2-hybrid
Chain of mouse dynein light chain 2 (DLC2) (Q9D0M5 whole entry): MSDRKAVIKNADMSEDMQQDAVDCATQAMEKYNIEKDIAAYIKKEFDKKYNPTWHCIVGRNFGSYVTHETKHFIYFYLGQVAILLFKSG

T1 sequence (P97287 1-307): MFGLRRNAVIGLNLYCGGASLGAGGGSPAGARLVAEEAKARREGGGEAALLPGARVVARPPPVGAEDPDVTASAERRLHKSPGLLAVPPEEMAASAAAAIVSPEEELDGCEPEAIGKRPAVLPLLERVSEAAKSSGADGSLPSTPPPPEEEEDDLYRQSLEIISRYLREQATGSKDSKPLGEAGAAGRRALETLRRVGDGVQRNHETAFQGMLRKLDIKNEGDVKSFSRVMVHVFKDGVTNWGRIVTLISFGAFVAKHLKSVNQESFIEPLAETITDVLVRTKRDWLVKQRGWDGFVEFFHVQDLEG

| Binder | binding result [1] | binding result [2] |
| --- | --- | --- |
| Bmf (Bcl-2 modifying factor), mouse, wild-type, as used in the yeast 2-hybrid system (other, The clone first isolated with Mcl-1 as bait was a partial one lacking the 5' end; Mouse bmf was later subcloned as bait; also called the novel protein; not shown: GAL4 domain of the yeast 2-hybrid vector (pAD-GAL4-2.1 for the library clone, a pGBT-9 derivative for Bmf as bait); limi) MEPPQCVEELEDDVFQSEDGEPGTQPGGLLSADLFAQSQLDCPLSRLQLFPLTHCCGPGLRPISQEDKATQTLSPASPSQGVMLPCGVTEEPQRLFYGNAGYRLPLPASFPAGSPLGEQPPEGQFLQHRAEVQIARKLQCIADQFHRLHTQQHQQNRDRAWWQVFLFLQNLALNRQENREGVGPW | binds |  |
| Bmf A69P mutant as tested in yeast (other, Yeast construct of the mutant is not described further; not shown: GAL4 domain of the yeast 2-hybrid vector) MEPPQCVEELEDDVFQSEDGEPGTQPGGLLSADLFAQSQLDCPLSRLQLFPLTHCCGPGLRPISQEDKPTQTLSPASPSQGVMLPCGVTEEPQRLFYGNAGYRLPLPASFPAGSPLGEQPPEGQFLQHRAEVQIARKLQCIADQFHRLHTQQHQQNRDRAWWQVFLFLQNLALNRQENREGVGPW |  | no binding |
| Bmf AAA mutant (D67K68A69:>AAA) as tested in yeast (other, Yeast construct of the mutant is not described further; also called AAA mutation; not shown: GAL4 domain of the yeast 2-hybrid vector) MEPPQCVEELEDDVFQSEDGEPGTQPGGLLSADLFAQSQLDCPLSRLQLFPLTHCCGPGLRPISQEAAATQTLSPASPSQGVMLPCGVTEEPQRLFYGNAGYRLPLPASFPAGSPLGEQPPEGQFLQHRAEVQIARKLQCIADQFHRLHTQQHQQNRDRAWWQVFLFLQNLALNRQENREGVGPW |  | no binding |
